The results in this text go back to patent US20250355001A1 (GTINVENT, published 2025).

First the molecules themselves.
B1: 3aH6 mAb (antibody)
heavy: QVQLQESGPSLVKPSQTLSLTCTVSGFSLSSNGVGWVRQAPGKVPEWLGDISSVGKKYANPALKSRLSFTRDTSKSQVSLSLSSVTTEDTAVYYCVKCRDGGVTYGYDIDYWGPGLLVTASSAKTTAPSVYPLAPVCGDTTGSSVTLGCLVKGYFPEPVTLTWNSGSLSSGVHTFPAVLQSDLYTLSSSVTVTSSTWPSQSITCNVAHPASSTKVDKKIEPRGPTIKPCPPCKCPAPNLLGGPSVFIFPPKIKDVLMISLSPIVTCVVVDVSEDDPDVQISWFVNNVEVHTAQTQTHREDYNSTLRVVSALPIQHQDWMSGKEFKCKVNNKDLPAPIERTISKPKGSVRAPQVYVLPPPEEEMTKKQVTLTCMVTDFMPEDIYVEWTNNGKTELNYKNTEPVLDSDGSYFMYSKLRVEKKNWVERNSYSCSVVHEGLHNHHTTKSFSRTPGK
light: QAVVTQPSSVSGSLGQSVSITCSGSSGNVGYGDYVSWFQQFHGSAPKLLIYGATNLASGVPARFSGSRSGNTATLTISSLHAEDEADYYCASYDSSSGGVFGSGTRLTVLGGQPKSSPSVTLFPPSSEELETNKATLVCTITDFYPGVVTVDWKVDGTPVTQGMETTQPSKQSNNKYMASSYLTLTARAWERHSSYSCQVTHEGHTVEKSLSRADCS
B2: 3bG4 mAb (antibody, mouse IgG2a, V domains shown)
VH: QVQLQESGPSLVKPSQTLSLTCTISGFSLISNGVGWVRQAPGKVPEWVGDIASSGKAYSNPALKSRLSITRDTSKSQVSLSLRSVTTEDTAVYYCVRCRDGGVTYGYDIDYWGPGLLVTVSS
VL: QAVLTQPSSVSKSLGQSVSITCSGSTSNVGSGNDVSWFQQVPGSAPKLLFYGATNRASGVPDRFSGSRSGNTATLTITSLQAEDEADYYCGSYDSNSGGIFGSGTRLTVLG
notes: sheep-mouse IgG2a chimeric mAb
B3: 3aG3 mAb (antibody, V domains shown)
VH: B2 VH with I24V, I30S, A52S, S59A, S74A, S76T, S79F, R83S, T104S
VL: QAVLTQPPSVSGSPGQRVSITCSGSSSNIGGGNYLSWFQQVPGSAPKLLIYGATSRASGVPDRFSGSRSGNTATLTISSLQAEDEADYYCASFDTSSGGIFGAGTRLTVLG
B4: 412E10 mAb (antibody, mouse IgG2a, V domains shown)
VH: QVQLQESGPSLVKPSQTLSLTCTVSGFSVISDSVAWVRQAPGKVPEWLGASGSSGNKYYNPALKSRLSITRDTSKSQVSLSLSSVTTEDTAVYYCARGIIAGVDVWGRGLLVTVSS
VL: QAVLTQPSSVSGSLGQRVSITCSGSSSNVGYGNYVGWYQQVPGSAPKLLIYGTAIRASGVPDRFSGSRSGDTATLTITSLQAEDEADYYCASYQSNYAFFGSGTRLTVLG
notes: as for B2
B5: CE2 mAb (antibody, mouse IgG2a, V domains shown)
VH: QVQLQESGPSLVKPSQTLSLTCTVSGFSLTNYPVGWVRQAPGKALEWIGNIENDGSANYASALKSRLSITRDTSKNQVSLSLSSATTEDTAVYYCGREFGGSDGYTYFVDIDYWGPGLLVTVSS
VL: QAVLTQPSSVSKSLGQSVSITCSGSSSNVGYGNYVSWFQQVPGSAPKILIYGATSRASGVPDRFSGSRSGNTATLTITSLQAEDEADYYCASYDGSSSGVFGSGTRLTVLG
notes: as for B2
B6: CE3 mAb (antibody, mouse IgG2a, V domains shown)
VH: QVRLQESGPSLVKPSQTLSVTCTVSGFSLISNAVGWVRQAPGKVPESLAGCSSDGKCYYNSALKSRLDITRDTSKNQISLSLSSVTTDDAAVYYCTRGYYPVYGYDYLGTIDYWGPGLLVTVSS
VL: QAVLTQPSSVSGSLGQRVSITCSGSSSNVGRNDVAWFQQLPGSGLRTIIYGTTSRPSGIPDRFSGSKSGVTATLTIDSLQAEDEADYFCASGDSSAINDIFGSGTRLTVLG
notes: as for B2

Where a chain is given by its changes, count along the chain named.

Usually Kd stands for a measure of binding affinity in units of concentration. A higher Kd goes with lower affinity. By koff is commonly meant the rate constant with which the complex falls apart. A high value points to fast dissociation. Broadly, the kon is a measure of how fast the partners come together.

T1 sequence (P10636 other isoform, or with tags, fused parts or gaps limits assumed): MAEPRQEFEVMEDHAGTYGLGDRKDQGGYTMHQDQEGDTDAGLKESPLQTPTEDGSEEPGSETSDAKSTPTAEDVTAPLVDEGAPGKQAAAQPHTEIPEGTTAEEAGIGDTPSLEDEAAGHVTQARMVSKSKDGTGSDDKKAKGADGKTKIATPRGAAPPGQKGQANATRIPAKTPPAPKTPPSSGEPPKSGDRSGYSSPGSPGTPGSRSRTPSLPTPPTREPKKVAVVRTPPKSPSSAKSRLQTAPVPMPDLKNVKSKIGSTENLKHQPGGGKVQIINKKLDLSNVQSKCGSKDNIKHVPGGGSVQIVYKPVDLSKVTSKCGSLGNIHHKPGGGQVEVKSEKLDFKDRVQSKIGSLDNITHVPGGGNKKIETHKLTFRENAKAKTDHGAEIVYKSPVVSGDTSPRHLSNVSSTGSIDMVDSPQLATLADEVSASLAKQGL

One assay has as its target T1, full length human tau protein 2N4R (hT40) (human, UniProt P10636 1-758).
T1 construct: recombinant; also called T441
In words: SPR, hT40 immobilised, mAb analyte. Here is the method: (§1) For anti-tau mAb SPR measurements, htau40 was conjugated to the surface of a CM5 sensor chip using amine coupling as explained previously. Briefly, 2 μg/mL htau40 in 10 mM Sodium acetate buffer (pH 4.0) was passed over the activated chip surface (EDC/NHS) in flow cell 2 for a period for 45 s followed by blocking with 1 M ethanolamine-HCl PH 8.5. Flow cell 1 was set up as reference control and blocked simultaneously. Final immobilisation level of htau40 (Rmax) was approximately 250 RU. […] The mAb was added for a 120 s association period and 600 s dissociation period followed by a regeneration cycle of 30 s injection of glycine buffer pH 1.5 in between each cycle. Binding responses were analysed in Biacore X100 evaluation software and data fitted to a 1:1 binding model to obtain kinetic and affinity characterisation.
For anti-tau mAb SPR measurements (Biacore X100™) and epitope mapping, the same methodologies described above (see Example 16) were followed.
Background: SPR reads the build-up and loss of mass on a sensor chip optically.
B1 showed a dissociation constant (Kd) of 0.049 nM, a koff of 0.000152 s⁻¹ and a kon of 3.13e+06 M⁻¹ s⁻¹.
In the same order, the values of B2 are 0.065 nM, 0.000296 s⁻¹ and 4.54e+06 M⁻¹ s⁻¹.
For B3, the Kd was determined as 0.31 nM, the koff was determined as 0.00475 s⁻¹ and the kon is 1.53e+07 M⁻¹ s⁻¹.

For a further assay, the target named is T1, full length human tau protein 2N4R …. In words: SPR, hT40 immobilised, mAb analyte. The source holds these as a separate data set. Here is the method: as §1
As to B4, the equilibrium dissociation constant (Kd) was 9 nM, the koff was found to be 0.015 s⁻¹ and the kon amounted to 1.66e+06 M⁻¹ s⁻¹.
B5 yielded a Kd of 11 nM, a koff of 0.00522 s⁻¹ and an on-rate (kon) of 458000 M⁻¹ s⁻¹.
In the same order, the values of B6 are 16.7 nM, 0.00172 s⁻¹ and 103000 M⁻¹ s⁻¹.
